Results on one substance are retold here after patent publication CN116829596A.

Assay [1] concerns the target 人类血浆激肽释放酶 (human plasma kallikrein) (human) (UniProt P03952). Kind of assay: SPR, 37 C, pH 6.0. On the technique in general: Surface plasmon resonance follows binding to a sensor surface in real time, without labels.
The target is the same in assay [2]. Briefly: SPR, 37 C, pH 7.4.
The target of assay [3] is 丝氨酸穿膜蛋白酶. Briefly: cell-based or functional assay.
In assay [4] the target is 人类血浆激肽释放酶 (human plasma kallikrein) (human) (UniProt P03952). Briefly: cell-based or functional assay.
The target of assay [5] is 凝血酶A (thrombin A). Briefly: cell-based or functional assay.
For assay [6], the target named is 胰蛋白酶、人类胰酶 (trypsin, human pancreas) (human) (UniProt P07477). Kind of assay: cell-based or functional assay.
The target of assay [7] is 人类血浆激肽释放酶 (human plasma kallikrein) (human) (UniProt P03952). Kind of assay: SPR, 37 C, pH 7.4 or pH 6.0.
For assay [8] the target is unchanged. Briefly: SPR, 37 C, pH 6 against pH 7.4.

Chain of UniProt P03952 (P03952 20-390 S143N limits assumed, chain 1 of 2): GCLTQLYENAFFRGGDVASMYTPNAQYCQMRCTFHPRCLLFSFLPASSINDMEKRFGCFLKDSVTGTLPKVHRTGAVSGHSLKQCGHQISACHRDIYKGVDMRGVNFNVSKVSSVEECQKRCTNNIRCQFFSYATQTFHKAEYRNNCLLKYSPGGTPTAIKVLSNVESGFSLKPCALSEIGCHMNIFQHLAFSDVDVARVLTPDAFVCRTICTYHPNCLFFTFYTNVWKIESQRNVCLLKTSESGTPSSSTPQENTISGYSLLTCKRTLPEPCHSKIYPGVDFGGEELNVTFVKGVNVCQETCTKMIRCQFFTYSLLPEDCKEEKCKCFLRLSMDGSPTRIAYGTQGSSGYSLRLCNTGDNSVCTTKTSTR
Chain of UniProt P03952 (P03952 391-638 limits assumed, chain 2 of 2): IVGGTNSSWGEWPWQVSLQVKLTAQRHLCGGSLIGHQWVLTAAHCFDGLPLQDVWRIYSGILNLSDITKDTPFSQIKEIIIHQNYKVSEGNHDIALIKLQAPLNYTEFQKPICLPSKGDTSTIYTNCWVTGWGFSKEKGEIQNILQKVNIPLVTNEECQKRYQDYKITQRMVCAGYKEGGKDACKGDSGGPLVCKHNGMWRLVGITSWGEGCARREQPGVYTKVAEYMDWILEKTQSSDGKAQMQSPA

Broadly, the Kd is the free concentration of one partner at which half of the binding sites on the other are occupied at equilibrium, for simple one-to-one binding. In the case of DX-2930 (antibody), the Kd was found to be 236 nM in assay [1] and 18 nM in assay [2]. In addition, the 丝氨酸蛋白酶抑制分析，IC50 in assay [3] and in assay [5] was > 1000 nM in each case. The same substance displayed an IC90，HMWK功能分析 in assay [4] of 300 nM. The substance also displayed a 胰蛋白酶抑制分析，IC50 in assay [6] of 243 to 376 nM. For the same substance, the fold affinity for plasma kallikrein over prekallikrein in assay [7] is > 1000 倍. The fold change of KD between pH 6 and pH 7.4 in assay [8] was > 10 倍.
